Results: US20090280108A1, “SERUM AMYLOID A PROTEIN IN INFLAMMATION AND OBESITY” (priority 2004, published 2009)

Columns and labels:
[1] = system: adipose tissue A-SAA production; assay: Adipose organ culture: direct effect on adipose A-SAA production in vitro; conditions: rosiglitazone 1 μM; dexamethasone 25 nM and insulin 7 nM; about 48 hours, SAA production between 24 to 48 hours; n=3
[2] = system: Primary human coronary vascular endothelial cells (HCVECs); assay: Cytokine release from SAA-treated human coronary vascular endothelial cells (Luminex / ELISA); assay type: cell-based
Experimental: (§1) Cell Culture Conditions. Primary human coronary artery endothelial cells (HCAECs) were purchased from Cambrex (Walkersville, Md.) and grown in endothelial cell basal medium-2 (EBM-2) supplemented with EGM-2 BulletKit. Experiments were conducted between the third to fifth passages. RAW264 cells (ATCC, Manassas, Va.) were grown in RPMI medium 1640 supplemented with about 10% fetal bovine serum. These cells were seeded on 6-well tissue culture plates at about 75% confluence and grown to about 90-95% confluence. The growth medium was replaced with supplement-free media (EBM-2 basal medium for HCAECs and RPMI1640 for RAW264). About one hour after the medium change, the cells were treated with recombinant human SAA (Peprotech, Rocky Hill, N.J.). The endotoxin level for this commercial preparation is advertised as less than about 0.1 ng/μg protein. The conditioned medium was collected about 8 hours after the SAA treatment by centrifugation at about 2,000×g for about 5 minutes and frozen until use for cytokine analysis.
(§2) Cytokine analysis. […] The intra- and inter-assay CV is about 5% and about 8% respectively. […] All samples were assayed in duplicate.

[3] = system: mouse monocyte cell line RAW264; assay: Cytokine release from SAA-treated RAW264 monocytes (Luminex); assay type: cell-based; conditions: RAW264 cells
Experimental: as §1, §2

[4] = SAA 0.47 or 2.3 μg/ml, about 8 hours, serum-free medium, dose-dependent

Molecule: CN(CCOc1ccc(CC2SC(=O)NC2=O)cc1)c1ccccn1 (centres unmarked) [rosiglitazone]
- reduction of insulin/dexamethasone stimulation of A-SAA secretion in the media [1]: about 70%

Molecule: lipopolysaccharide [LPS, reference compound]
- cytokine secretion (endotoxin contamination control) ([2]; LPS 1 ng/ml): did not stimulate cytokine secretion
- cytokine secretion (endotoxin contamination control) ([3]; LPS 1 ng/ml): did not stimulate cytokine secretion

B1: A-SAA: recombinant human SAA (Peprotech); acute-phase serum amyloid A used to treat cells (protein, UniProt P0DJI8 19-122, looked up)
Serum amyloid A-1 protein: RSFFSFLGEAFDGARDMWRAYSDMREANYIGSDKYFHARGNYDAAKRGPGGAWAAEVITDARENIQRFFGHGAEDSLADQAANEWGRSGKDPNHFRPAGLPEKY
- release of IL-6 [2, 4]: dramatically stimulated
- release of IL-8 [2, 4]: dramatically stimulated
- release of MCP-1 [2, 4]: dramatically stimulated
- release of plasminogen activator inhibitor-1 (PAI-1) [2, 4]: dramatically stimulated
- release of IL-6 [3, 4]: dramatically stimulated
- release of IL-8 [3, 4]: dramatically stimulated
- release of RANTE [3, 4]: dramatically stimulated
- release of TNFα [3, 4]: dramatically stimulated
